Measurements taken from IntAct's records for PubMed 19141287.

B1: Mitotic checkpoint serine/threonine-protein kinase BUB1 (Homo sapiens), O43683 (parent)
chain: MDTPENVLQMLEAHMQSYKGNDPLGEWERYIQWVEENFPENKEYLITLLEHLMKEFLDKKKYHNDPRFISYCLKFAEYNSDLHQFFEFLYNHGIGTLSSPLYIAWAGHLEAQGELQHASAVLQRGIQNQAEPREFLQQQYRLFQTRLTETHLPAQARTSEPLHNVQVLNQMITSKSNPGNNMACISKNQGSELSGVISSACDKESNMERRVITISKSEYSVHSSLASKVDVEQVVMYCKEKLIRGESEFSFEELRAQKYNQRRKHEQWVNEDRHYMKRKEANAFEEQLLKQKMDELHKKLHQVVETSHEDLPASQERSEVNPARMGPSVGSQQELRAPCLPVTYQQTPVNMEKNPREAPPVVPPLANAISAALVSPATSQSIAPPVPLKAQTVTDSMFAVASKDAGCVNKSTHEFKPQSGAEIKEGCETHKVANTSSFHTTPNTSLGMVQATPSKVQPSPTVHTKEALGFIMNMFQAPTLPDISDDKDEWQSLDQNEDAFEAQFQKNVRSSGAWGVNKIISSLSSAFHVFEDGNKENYGLPQPKNKPTGARTFGERSVSRLPSKPKEEVPHAEEFLDDSTVWGIRCNKTLAPSPKSPGDFTSAAQLASTPFHKLPVESVHILEDKENVVAKQCTQATLDSCEENMVVPSRDGKFSPIQEKSPKQALSSHMYSASLLRLSQPAAGGVLTCEAELGVEACRLTDTDAAIAEDPPDAIAGLQAEWMQMSSLGTVDAPNFIVGNPWDDKLIFKLLSGLSKPVSSYPNTFEWQCKLPAIKPKTEFQLGSKLVYVHHLLGEGAFAQVYEATQGDLNDAKNKQKFVLKVQKPANPWEFYIGTQLMERLKPSMQHMFMKFYSAHLFQNGSVLVGELYSYGTLLNAINLYKNTPEKVMPQGLVISFAMRMLYMIEQVHDCEIIHGDIKPDNFILGNGFLEQDDEDDLSAGLALIDLGQSIDMKLFPKGTIFTAKCETSGFQCVEMLSNKPWNYQIDYFGVAATVYCMLFGTYMKVKNEGGECKPEGLFRRLPHLDMWNEFFHVMLNIPDCHHLPSLDLLRQKLKKVFQQHYTNKIRALRNRLIVLLLECKRSRK

Variants of: B1
Conditions: with KNL1, Q8NG31-2
KNL1, Q8NG31-2, sequence (Q8NG31 other isoform, or with tags, fused parts or gaps): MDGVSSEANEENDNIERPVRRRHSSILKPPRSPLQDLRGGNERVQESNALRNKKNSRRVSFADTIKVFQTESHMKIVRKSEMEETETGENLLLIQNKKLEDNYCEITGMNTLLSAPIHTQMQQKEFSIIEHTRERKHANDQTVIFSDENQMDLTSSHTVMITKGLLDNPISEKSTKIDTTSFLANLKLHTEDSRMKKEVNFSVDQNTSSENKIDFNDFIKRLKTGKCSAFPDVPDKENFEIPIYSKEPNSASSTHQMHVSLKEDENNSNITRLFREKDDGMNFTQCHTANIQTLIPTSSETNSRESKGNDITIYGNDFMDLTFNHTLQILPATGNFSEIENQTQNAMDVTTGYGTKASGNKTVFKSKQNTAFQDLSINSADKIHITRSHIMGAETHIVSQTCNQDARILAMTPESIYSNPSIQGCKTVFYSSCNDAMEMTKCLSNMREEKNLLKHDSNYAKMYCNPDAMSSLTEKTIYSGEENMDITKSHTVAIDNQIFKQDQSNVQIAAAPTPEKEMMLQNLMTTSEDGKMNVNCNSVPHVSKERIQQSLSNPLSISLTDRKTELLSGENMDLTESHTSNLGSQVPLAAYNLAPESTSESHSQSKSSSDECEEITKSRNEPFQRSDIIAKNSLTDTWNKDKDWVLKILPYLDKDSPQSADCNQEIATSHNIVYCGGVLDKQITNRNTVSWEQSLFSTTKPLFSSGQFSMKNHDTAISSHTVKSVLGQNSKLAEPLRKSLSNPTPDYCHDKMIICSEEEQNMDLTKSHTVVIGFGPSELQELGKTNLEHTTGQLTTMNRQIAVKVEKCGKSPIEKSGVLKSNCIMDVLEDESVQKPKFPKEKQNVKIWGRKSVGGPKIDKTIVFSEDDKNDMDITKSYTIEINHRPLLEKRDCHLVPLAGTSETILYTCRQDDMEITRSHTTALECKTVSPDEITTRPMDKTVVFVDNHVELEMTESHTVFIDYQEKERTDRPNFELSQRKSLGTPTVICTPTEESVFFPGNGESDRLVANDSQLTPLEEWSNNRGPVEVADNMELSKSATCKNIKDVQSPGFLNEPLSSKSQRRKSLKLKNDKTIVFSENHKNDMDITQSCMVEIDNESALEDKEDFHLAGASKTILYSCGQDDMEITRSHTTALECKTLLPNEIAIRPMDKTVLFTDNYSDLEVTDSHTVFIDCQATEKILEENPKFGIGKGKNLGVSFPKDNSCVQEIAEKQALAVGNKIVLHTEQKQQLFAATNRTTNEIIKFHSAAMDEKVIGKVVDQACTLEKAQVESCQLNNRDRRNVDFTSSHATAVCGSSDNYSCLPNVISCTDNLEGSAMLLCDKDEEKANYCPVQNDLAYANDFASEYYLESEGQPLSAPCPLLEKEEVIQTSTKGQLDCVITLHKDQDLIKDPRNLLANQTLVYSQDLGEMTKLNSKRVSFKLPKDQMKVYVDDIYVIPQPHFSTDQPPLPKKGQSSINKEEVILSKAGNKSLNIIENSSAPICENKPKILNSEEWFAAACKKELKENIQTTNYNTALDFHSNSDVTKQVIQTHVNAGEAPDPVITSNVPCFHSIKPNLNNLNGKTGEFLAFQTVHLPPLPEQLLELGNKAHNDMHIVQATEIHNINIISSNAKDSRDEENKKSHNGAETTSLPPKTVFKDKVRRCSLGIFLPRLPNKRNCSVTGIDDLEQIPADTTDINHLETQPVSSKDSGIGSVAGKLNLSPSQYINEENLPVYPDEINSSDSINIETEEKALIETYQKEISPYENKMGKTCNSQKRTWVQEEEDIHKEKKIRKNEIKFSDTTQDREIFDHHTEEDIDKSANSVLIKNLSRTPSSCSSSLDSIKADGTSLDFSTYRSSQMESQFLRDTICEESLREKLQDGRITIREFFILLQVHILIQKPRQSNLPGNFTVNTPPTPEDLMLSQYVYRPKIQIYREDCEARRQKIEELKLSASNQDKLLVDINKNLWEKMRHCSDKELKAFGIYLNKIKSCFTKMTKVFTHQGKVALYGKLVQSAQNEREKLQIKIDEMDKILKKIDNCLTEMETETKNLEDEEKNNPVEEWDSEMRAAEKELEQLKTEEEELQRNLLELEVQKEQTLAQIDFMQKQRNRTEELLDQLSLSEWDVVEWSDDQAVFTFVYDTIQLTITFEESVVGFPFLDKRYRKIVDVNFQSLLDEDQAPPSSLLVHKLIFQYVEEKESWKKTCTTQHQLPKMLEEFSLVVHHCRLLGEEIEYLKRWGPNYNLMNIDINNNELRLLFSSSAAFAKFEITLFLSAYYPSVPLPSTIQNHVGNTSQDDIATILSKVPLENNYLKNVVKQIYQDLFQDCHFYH

| Variant | effect of a mutation on the interaction |
| --- | --- |
| L45G;L49G | disrupting interaction |
| D65G | disrupting interaction |

The next lines start with the values.

| effect of a mutation on the interaction | Variant |
| --- | --- |
| disrupting interaction | G20S;N21Q;D22A |
| disrupting interaction | G93A;I94G;G95L |
| disrupting interaction | G93A;G95A |
